Results: patent publication US20150246136A1 (Bayer, published 2015)

B1: Example 115, conjugate of anti-mesothelin antibody MF-Ta (antibody, human IgG1, lambda, V domains shown)
VH: QVELVQSGAEVKKPGESLKISCKGSGYSFTSYWIGWVRQAPGKGLEWMGIIDPGDSRTRYSPSFQGQVTISADKSISTAYLQWSSLKASDTAMYYCARGQLYGGTYMDGWGQGTLVTVSS
VL: DIALTQPASVSGSPGQSITISCTGTSSDIGGYNSVSWYQQHPGKAPKLMIYGVNNRPSGVSNRFSGSKSGNTASLTISGLQAEDEADYYCSSYDIESATPVFGGGTKLTVLG
modifications: toxophore-linker on Cys sulfur, sites not given
B2: Example 129, conjugate of anti-mesothelin antibody MF-Ta (antibody, human IgG1, lambda, V domains shown)
VH: B1 VH
VL: B1 VL
modifications: toxophore-linker on Cys sulfur, sites not given
B3: Example 130, conjugate of anti-mesothelin antibody MF-Ta (antibody, human IgG1, lambda, V domains shown)
VH: B1 VH
VL: B1 VL
modifications: toxophore-linker on Cys sulfur, sites not given
B4: Example 131, conjugate of anti-mesothelin antibody MF-Ta (antibody, human IgG1, lambda, V domains shown)
VH: B1 VH
VL: B1 VL
modifications: toxophore-linker on Cys sulfur, sites not given
B5: Example 132, conjugate of anti-mesothelin antibody MF-Ta (antibody, human IgG1, lambda, V domains shown)
VH: B1 VH
VL: B1 VL
modifications: toxophore-linker on Lys NH, sites not given
B6: Example 133, conjugate of anti-mesothelin antibody MF-Ta (antibody, human IgG1, lambda, V domains shown)
VH: B1 VH
VL: B1 VL
modifications: toxophore-linker on Cys sulfur, sites not given
B7: Example 134, conjugate of anti-mesothelin antibody MF-Ta (antibody, human IgG1, lambda, V domains shown)
VH: B1 VH
VL: B1 VL
modifications: toxophore-linker on Cys sulfur, sites not given
B8: Example 135, conjugate of anti-mesothelin antibody MF-Ta (antibody, human IgG1, lambda, V domains shown)
VH: B1 VH
VL: B1 VL
modifications: toxophore-linker on Cys sulfur, sites not given
B9: Example 136, conjugate of anti-mesothelin antibody MF-Ta (antibody, human IgG1, lambda, V domains shown)
VH: B1 VH
VL: B1 VL
modifications: toxophore-linker on Lys NH, sites not given
B10: Example 137, conjugate of anti-mesothelin antibody MF-Ta (antibody, human IgG1, lambda, V domains shown)
VH: B1 VH
VL: B1 VL
modifications: toxophore-linker on Cys sulfur, sites not given
B11: Example 138, conjugate of anti-mesothelin antibody MF-Ta (antibody, human IgG1, lambda, V domains shown)
VH: B1 VH
VL: B1 VL
modifications: toxophore-linker on Cys sulfur, sites not given
B12: Example 139, conjugate of anti-mesothelin antibody MF-Ta (antibody, human IgG1, lambda, V domains shown)
VH: B1 VH
VL: B1 VL
modifications: toxophore-linker on Cys sulfur, sites not given
B13: Example 140, conjugate of anti-mesothelin antibody MF-Ta (antibody, human IgG1, lambda, V domains shown)
VH: B1 VH
VL: B1 VL
modifications: toxophore-linker on Lys NH, sites not given
B14: Example 141, conjugate of anti-mesothelin antibody MF-Ta (antibody, human IgG1, lambda, V domains shown)
VH: B1 VH
VL: B1 VL
modifications: toxophore-linker on Cys sulfur, sites not given
B15: Example 142, conjugate of anti-mesothelin antibody MF-Ta (antibody, human IgG1, lambda, V domains shown)
VH: B1 VH
VL: B1 VL
modifications: toxophore-linker on Cys sulfur, sites not given
B16: Example 143, conjugate of anti-mesothelin antibody MF-Ta (antibody, human IgG1, lambda, V domains shown)
VH: B1 VH
VL: B1 VL
modifications: toxophore-linker on Lys NH, sites not given
B17: Example 144, conjugate of anti-mesothelin antibody MF-Ta (antibody, human IgG1, lambda, V domains shown)
VH: B1 VH
VL: B1 VL
modifications: toxophore-linker on Lys NH, sites not given
B18: Example 145, conjugate of anti-mesothelin antibody MF-Ta (antibody, human IgG1, lambda, V domains shown)
VH: B1 VH
VL: B1 VL
modifications: toxophore-linker on Lys NH, sites not given
B19: Example 146, conjugate of anti-mesothelin antibody MF-Ta (antibody, human IgG1, lambda, V domains shown)
VH: B1 VH
VL: B1 VL
modifications: toxophore-linker on Lys NH, sites not given
B20: Example 147, conjugate of anti-mesothelin antibody MF-Ta (antibody, human IgG1, lambda, V domains shown)
VH: B1 VH
VL: B1 VL
modifications: toxophore-linker on Lys NH, sites not given
B21: Example 148, conjugate of anti-mesothelin antibody MF-Ta (antibody, human IgG1, lambda, V domains shown)
VH: B1 VH
VL: B1 VL
modifications: toxophore-linker on Lys NH, sites not given
B22: Example 149, conjugate of anti-mesothelin antibody MF-Ta (antibody, human IgG1, lambda, V domains shown)
VH: B1 VH
VL: B1 VL
modifications: toxophore-linker on Lys NH, sites not given
B23: Example 150, conjugate of anti-mesothelin antibody MF-Ta (antibody, human IgG1, lambda, V domains shown)
VH: B1 VH
VL: B1 VL
modifications: toxophore-linker on Lys NH, sites not given
B24: Example 151, conjugate of anti-mesothelin antibody MF-Ta (antibody, human IgG1, lambda, V domains shown)
VH: B1 VH
VL: B1 VL
modifications: toxophore-linker on Cys sulfur, sites not given
B25: Example 152, conjugate of anti-mesothelin antibody MF-Ta (antibody, human IgG1, lambda, V domains shown)
VH: B1 VH
VL: B1 VL
modifications: toxophore-linker on Lys NH, sites not given
B26: Example 153, conjugate of anti-mesothelin antibody MF-Ta (antibody, human IgG1, lambda, V domains shown)
VH: B1 VH
VL: B1 VL
modifications: toxophore-linker on Cys sulfur, sites not given
B27: Example 154, conjugate of anti-mesothelin antibody MF-Ta (antibody, human IgG1, lambda, V domains shown)
VH: B1 VH
VL: B1 VL
modifications: toxophore-linker on Cys sulfur, sites not given
B28: Example 155, conjugate of anti-mesothelin antibody MF-Ta (antibody, human IgG1, lambda, V domains shown)
VH: B1 VH
VL: B1 VL
modifications: toxophore-linker, coupling residue not stated
B29: Example 156, conjugate of anti-mesothelin antibody MF-Ta (antibody, human IgG1, lambda, V domains shown)
VH: B1 VH
VL: B1 VL
modifications: toxophore-linker, coupling residue not stated
B30: Example 157, conjugate of anti-mesothelin antibody MF-Ta (antibody, human IgG1, lambda, V domains shown)
VH: B1 VH
VL: B1 VL
modifications: toxophore-linker, coupling residue not stated
B31: Example 158, conjugate of anti-mesothelin antibody MF-Ta (antibody, human IgG1, lambda, V domains shown)
VH: B1 VH
VL: B1 VL
modifications: toxophore-linker, coupling residue not stated

What follows are binders tested against Mesothelin (SwissProt reference Q13421-3) (Homo sapiens, UniProt Q13421 37-622) (assay: cell-based or functional assay).

First: B1
Second: B2
The “IC50 (nM), HT29 meso+ cells, MTT proliferation assay” value (shortened to “IC50 (nM), HT29 meso+ cells”) of the first is 88-fold lower: 0.06 nM for the first, 5.3 nM for the second.

B3 and B4 are within 1.5-fold of each other in “IC50 (nM), HT29 meso+ cells” value: 0.13 nM for the first, 0.09 nM for the second.

Going from B5 to B6, the “IC50 (nM), HT29 meso+ cells” value falls from 3.3 nM to 2.1 nM (1.6-fold).

Going from B7 to B8, the “IC50 (nM), HT29 meso+ cells” value rises from 0.03 nM to 0.25 nM (8.3-fold).

Compared with B9, B10 is 40-fold lower in “IC50 (nM), HT29 meso+ cells” value: 1.6 nM for the first, 0.04 nM for the second.

Going from B11 to B12, the “IC50 (nM), HT29 meso+ cells” value rises from 0.3 nM to 70 nM (230-fold).

Going from B13 to B14, the “IC50 (nM), HT29 meso+ cells” value rises from 6.8 nM to 43 nM (6.3-fold).

B15 and B16 are within 1.5-fold of each other in “IC50 (nM), HT29 meso+ cells” value: 0.27 nM for the first, 0.3 nM for the second.

First: B17
Second: B18
The “IC50 (nM), HT29 meso+ cells” value of the first is 2.7-fold lower: 2.7 nM for the first, 7.4 nM for the second.

First: B19
Second: B20
The “IC50 (nM), HT29 meso+ cells” value of the first is 2.3-fold higher: 13 nM for the first, 5.6 nM for the second.

Compared with B21, B22 is 140-fold lower in “IC50 (nM), HT29 meso+ cells” value: 425 nM for the first, 3.1 nM for the second.

Going from B23 to B24, the “IC50 (nM), HT29 meso+ cells” value rises from under 0.1 nM to over 1000 nM.

Compared with B25, B26 is 7.3-fold higher in “IC50 (nM), HT29 meso+ cells” value: 4.1 nM for the first, 30 nM for the second.

Going from B27 to B28, the “IC50 (nM), HT29 meso+ cells” value falls from 2.2 nM to 0.5 nM (4.4-fold).

Going from B29 to B30, the “IC50 (nM), HT29 meso+ cells” value falls from 4.6 nM to 0.09 nM (51-fold).

For B31, the “IC50 (nM), HT29 meso+ cells” value was 0.18 nM.
